The text below walks through data of publication doi:10.1101/2020.11.12.379867.

This assay addresses GST-STG^9D (GST-fused C-terminus of STG with nine serine residues replaced with aspartate). Nature of the assay: pull-down.

B1: flag-tagged μ3 subunit of the adaptor protein AP-3 (μ3A) (natural protein)
chain: MIHSLFLINCSGDIFLEKHWKSVVSQSVCDYFFEAQEKAADVENVPPVISTPHHYLISIYRDKLFFVSVIQTEVPPLFVIEFLHRVADTFQDYFGECSEAAIKDNVVIVYELLEEMLDNGFPLATESNILKELIKPPTILRSVVNSITGSSNVGDTLPTGQLSNIPWRRAGVKYTNNEAYFDVVEEIDAIIDKSGSTVFAEIQGVIDACIKLSGMPDLSLSFMNPRLLDDVSFHPCIRFKRWESERVLSFIPPDGNFRLISYRVSSQNLVAIPVYVKHSISFKENSSCGRFDITIGPKQNMGKTIEGITVTVHMPKVVLNMNLTPTQGSYTFDPVTKVLAWDVGKITPQKLPSLKGLVNLQSGAPKPEENPNLNIQFKIQQLAISGLKVNRLDMYGEKYKPFKGVKYVTKAGKFQVRT
On to B1, for which the amount of μ3 pulled down (STG^9A = 100%) was found to be 21%.
